From patent US20210380673A1

Legend:
Experiment in all cases: cell-based or functional assay
[1] = target: recombinant human CCL20 (human) (UniProt P78556)
human CCR6 (human) = human CCR6 (human) (UniProt P51684)
[2] = target: recombinant mouse CCL20 (mouse) (UniProt O89093)
Sequence of UniProt O89093 (O89093 28-97 limits assumed): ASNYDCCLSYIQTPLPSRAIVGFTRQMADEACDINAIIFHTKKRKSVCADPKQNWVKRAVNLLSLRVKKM

Sequence of UniProt P78556 (P78556 27-96 limits assumed): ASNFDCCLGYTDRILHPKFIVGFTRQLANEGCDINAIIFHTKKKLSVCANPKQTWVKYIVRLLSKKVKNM
Sequence of UniProt P51684 (P51684 whole entry): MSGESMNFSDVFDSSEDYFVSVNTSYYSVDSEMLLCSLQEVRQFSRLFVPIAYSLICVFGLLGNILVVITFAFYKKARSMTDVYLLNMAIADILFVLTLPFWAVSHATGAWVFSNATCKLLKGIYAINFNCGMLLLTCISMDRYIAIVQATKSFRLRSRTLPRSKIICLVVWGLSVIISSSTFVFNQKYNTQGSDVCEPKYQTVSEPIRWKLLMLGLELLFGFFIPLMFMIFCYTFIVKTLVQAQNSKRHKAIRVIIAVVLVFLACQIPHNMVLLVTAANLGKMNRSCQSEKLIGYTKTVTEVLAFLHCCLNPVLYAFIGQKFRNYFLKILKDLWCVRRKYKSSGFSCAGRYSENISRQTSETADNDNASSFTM

Q: How did the IC50, beta-arrestin translocation assay (CHO-K1 cells overexpressing human CCR6, stimulated with 6 nM CCL20) [1] turn out when “neutralizing monoclonal antibody against human CCL20 (clone 67310; R&D Systems)” was run?
A: 2.7 nM

Q: What about the IC50, cAMP assay (Ad293 cells overexpressing human CCR6, stimulated with 1 nM CCL20) [1] of the same substance?
A: 0.8 nM

Q: “recombinant human CCL20 (from UniProt P78556 27-96) (ligand)” was tested. Which expression of NANOG, BMI1, OCT3/4 and SOX2 in CCR6+ against CCR6- NCIH508 cells after 48 hours with 100 pg/mL CCL20 (human CCR6 (human)) did it give?
A: 2 fold

Q: Which IC50, beta-arrestin translocation assay (CHO-K1 cells overexpressing mouse CCR6, stimulated with 1.2 nM mouse CCL20) [2] does the source give for “anti-mouse CCL20 monoclonal antibody (clone 114908; R&D Systems)” here?
A: 14 nM
